{"source": "patent US20250339531A1", "about": "“DUX4 POLYPEPTIDES AND NUCLEIC ACIDS FOR TREATING INFLAMMATORY AND AUTOIMMUNE CONDITIONS” (Fred Hutchinson Cancer Center, priority 2021, published 2025)", "molecules": {"B1": {"name": "NONO (protein, UniProt Q15233 1-471, looked up)", "Non-POU domain-containing …": "MQSNKTFNLEKQNHTPRKHHQHHHQQQHHQQQQQQPPPPPIPANGQQASSQNEGLTIDLKNFRKPGEKTFTQRSRLFVGNLPPDITEEEMRKLFEKYGKAGEVFIHKDKGFGFIRLETRTLAEIAKVELDNMPLRGKQLRVRFACHSASLTVRNLPQYVSNELLEEAFSVFGQVERAVVIVDDRGRPSGKGIVEFSGKPAARKALDRCSEGSFLLTTFPRPVTVEPMDQLDDEEGLPEKLVIKNQQFHKEREQPPRFAQPGSFEYEYAMRWKALIEMEKQQQDQVDRNIKEAREKLEMEMEAARHEHQVMLMRQDLMRRQEELRRMEELHNQEVQKRKQLELRQEEERRRREEEMRRQQEEMMRRQQEGFKGTFPDAREQEIRMGQMAMGGAMGINNRGAMPPAPVPAGTPAPPGPATMMPDGTLGLTPPTTERFGQAATMEGIGAIGGTPPAFNRAAPGAEFAPNKRRRY"}, "B2": {"name": "Q12797 (protein, UniProt Q12797 1-758, looked up)", "chain": "MAQRKNAKSSGNSSSSGSGSGSTSAGSSSPGARRETKHGGHKNGRKGGLSGTSFFTWFMVIALLGVWTSVAVVWFDLVDYEEVLGKLGIYDADGDGDFDVDDAKVLLGLKERSTSEPAVPPEEAEPHTEPEEQVPVEAEPQNIEDEAKEQIQSLLHEMVHAEHVEGEDLQQEDGPTGEPQQEDDEFLMATDVDDRFETLEPEVSHEETEHSYHVEETVSQDCNQDMEEMMSEQENPDSSEPVVEDERLHHDTDDVTYQVYEEQAVYEPLENEGIEITEVTAPPEDNPVEDSQVIVEEVSIFPVEEQQEVPPETNRKTDDPEQKAKVKKKKPKLLNKFDKTIKAELDAAEKLRKRGKIEEAVNAFKELVRKYPQSPRARYGKAQCEDDLAEKRRSNEVLRGAIETYQEVASLPDVPADLLKLSLKRRSDRQQFLGHMRGSLLTLQRLVQLFPNDTSLKNDLGVGYLLIGDNDNAKKVYEEVLSVTPNDGFAKVHYGFILKAQNKIAESIPYLKEGIESGDPGTDDGRFYFHLGDAMQRVGNKEAYKWYELGHKRGHFASVWQRSLYNVNGLKAQPWWTPKETGYTELVKSLERNWKLIRDEGLAVMDKAKGLFLPEDENLREKGDWSQFTLWQQGRRNENACKGAPKTCTLLEKFPETTGCRRGQIKYSIMHPGTHVWPHTGPTNCRLRMHLGLVIPKEGCKIRCANETKTWEEGKVLIFDDSFEHEVWQDASSFRLIFIVDVWHPELTPQQRRSLPAI", "modifications": "full-length"}, "B3": {"name": "KANK2 (protein)", "chain": "MAQVLHVPAPFPGTPGPASPPAFPAKDPDPPYSVETPYGYRLDLDFLKYVDDIEKGHTLRRVAVQRRPRLSSLPRGPGSWWTSTESLCSNASGDSRHSAYSYCGRGFYPQYGALETRGGFNPRVERTLLDARRRLEDQAATPTGLGSLTPSAAGSTASLVGVGLPPPTPRSSGLSTPVPPSAGHLAHVREQMAGALRKLRQLEEQVKLIPVLQVKLSVLQEEKRQLTVQLKSQKFLGHPTAGRGRSELCLDLPDPPEDPVALETRSVGTWVRERDLGMPDGEAALAAKVAVLETQLKKALQELQAAQARQADPQPQAWPPPDSPVRVDTVRVVEGPREVEVVASTAAGAPAQRAQSLEPYGTGLRALAMPGRPESPPVFRSQEVVETMCPVPAAATSNVHMVKKISITERSCDGAAGLPEVPAESSSSPPGSEVASLTQPEKSTGRVPTQEPTHREPTRQAASQESEEAGGTGGPPAGVRSIMKRKEEVADPTAHRRSLQFVGVNGGYESSSEDSSTAENISDNDSTENEAPEPRERVPSVAEAPQLRPAGTAAAKTSRQECQLSRESQHIPTAEGASGSNTEEEIRMELSPDLISACLALEKYLDNPNALTERELKVAYTTVLQEWLRLACRSDAHPELVRRHLVTFRAMSARLLDYVVNIADSNGNTALHYSVSHANFPVVQQLLDSGVCKVDKQNRAGYSPIMLTALATLKTQDDIETVLQLFRLGNINAKASQAGQTALMLAVSHGRVDVVKALLACEADVNVQDDDGSTALMCACEHGHKEIAGLLLAVPSCDISLTDRDGSTALMVALDAGQSEIASMLYSRMNIKCSFAPMSDDESPTSSSAEE"}, "B4": {"name": "TRIM28 (protein)", "chain": "AASAAAASAAAASAASGSPGPGEGSAGGEKRSTAPSAAASASASAAASSPAGGGAEALELLEHCGVCRERLRPEREPRLLPCLHSACSACLGPAAPAAANSSGDGGAAGDGTVVDCPVCKQQCFSKDIVENYFMRDSGSKAATDAQDANQCCTSCEDNAPATSYCVECSEPLCETCVEAHQRVKYTKDHTVRSTGPAKSRDGERTVYCNVHKHEPLVLFCESCDTLTCRDCQLNAHKDHQYQFLEDAVRNQRKLLASLVKRLGDKHATLQKSTKEVRSSIRQVSDVQKRVQVDVKMAILQIMKELNKRGRVLVNDAQKVTEGQQERLERQHWTMTKIQKHQEHILRFASWALESDNNTALLLSKKLIYFQLHRALKMIVDPVEPHGEMKFQWDLNAWTKSAEAFGKIVAERPGTNSTGPAPMAPPRAPGPLSKQGSGSSQPMEVQEGYGFGSGDDPYSSAEPHVSGVKRSRSGEGEVSGLMRKVPRVSLERLDLDLTADSQPPVFKVFPGSTTEDYNLIVIERGAAAAATGQPGTAPAGTPGAPPLAGMAIVKEEETEAAIGAPPTATEGPETKPVLMALAEGPGAEGPRLASPSGSTSSGLEVVAPEGTSAPGGGPGTLDDSATICRVCQKPGDLVMCNQCEFCFHLDCHLPALQDVPGEEWSCSLCHVLPDLKEEDGSLSLDGADSTGVVAKLSPANQRKCERVLLALFCHEPCRPLHQLATDSTFSLDQPGGTLDLTLIRARLQEKLSPPYSSPQEFAQDVGRMFKQFNKLTEDKADVQSIIGLQRFFETRMNEAFGDTKFSAVLVEPPPMSLPGAGLSSQELSGGPGDGP"}, "B5": {"name": "NAP1L1 (protein)", "chain": "ADIDNKEQSELDQDLDDVEEVEEEETGEETKLKARQLTVQMMQNPQILAALQERLDGLVETPTGYIESLPRVVKRRVNALKNLQVKCAQIEAKFYEEVHDLERKYAVLYQPLFDKRFEIINAIYEPTEEECEWKPDEEDEISEELKEKAKIEDEKKDEEKEDPKGIPEFWLTVFKNVDLLSDMVQEHDEPILKHLKDIKVKFSDAGQPMSFVLEFHFEPNEYFTNEVLTKTYRMRSEPDDSDPFSFDGPEIMGCTGCQIDWKKGKNVTLKTIKKKQKHKGRGTVRTVTKTVSNDSFFNFFAPPEVPESGDLDDDAEAILAADFEIGHFLRERIIPRSVLYFTGEAIEDDDDDYDEEGEEADEEGEEEGDEENDPDYDPKKDQNPAEC"}, "B6": {"name": "RNH1 (protein)", "chain": "SLDIQSLDIQCEELSDARWAELLPLLQQCQVVRLDDCGLTEARCKDISSALRVNPALAELNLRSNELGDVGVHCVLQGLQTPSCKIQKLSLQNCCLTGAGCGVLSSTLRTLPTLQELHLSDNLLGDAGLQLLCEGLLDPQCRLEKLQLEYCSLSAASCEPLASVLRAKPDFKELTVSNNDINEAGVRVLCQGLKDSPCQLEALKLESCGVTSDNCRDLCGIVASKASLRELALGSNKLGDVGMAELCPGLLHPSSRLRTLWIWECGITAKGCGDLCRVLRAKESLKELSLAGNELGDEGARLLCETLLEPGCQLESLWVKSCSFTAACCSHFSSVLAQNRFLLELQISNNRLEDAGVRELCQGLGQPGSVLRVLWLADCDVSDSSCSSLAATLLANHSLRELDLSNNCLGDAGILQLVESVRQPGCLLEQLVLYDIYWSEEMEDRLQALEKDKPSLRVIS"}, "B7": {"name": "CAPRIN1 (protein)", "chain": "PSATSHSGSGSKSSGPPPPSGSSGSEAAAGAGAAAPASQHPATGTGAVQTEAMKQILGVIDKKLRNLEKKKGKLDDYQERMNKGERLNQDQLDAVSKYQEVTNNLEFAKELQRSFMALSQDIQKTIKKTARREQLMREEAEQKRLKTVLELQYVLDKLGDDEVRTDLKQGLNGVPILSEEELSLLDEFYKLVDPERDMSLRLNEQYEHASIHLWDLLEGKEKPVCGTTYKVLKEIVERVFQSNYFDSTHNHQNGLCEEEEAASAPAVEDQVPEAEPEPAEEYTEQSEVESTEYVNRQFMAETQFTSGEKEQVDEWTVETVEVVNSLQQQPQAASPSVPEPHSLTPVAQADPLVRRQRVQDLMAQMQGPYNFIQDSMLDFENQTLDPAIVSAQPMNPTQNMDMPQLVCPPVHSESRLAQPNQVPVQPEATQVPLVSSTSEGYTASQPLYQPSHATEQRPQKEPIDQIQATISLNTDQTTASSSLPAASQPQVFQAGTSKPLHSSGINVNAAPFQSMQTVFNMNAPVPPVNEPETLKQQNQYQASYNQSFSSQPHQVEQTELQQEQLQTVVGTYHGSPDQSHQVTGNHQQPPQQNTGFPRSNQPYYNSRGVSRGGSRGARGLMNGYRGPANGFRGGYDGYRPSFSNTPNSGYTQSQFSAPRDYSGYQRDGYQQNFKRGSGQSGPRGAPRGRGGPPRPNRGMPQMNTQQVN"}, "B8": {"name": "G3BP2 (protein)", "chain": "VMEKPSPLLVGREFVRQYYTLLNKAPEYLHRFYGRNSSYVHGGVDASGKPQEAVYGQNDIHHKVLSLNFSECHTKIRHVDAHATLSDGVVVQVMGLLSNSGQPERKFMQTFVLAPEGSVPNKFYVHNDMFRYEDEVFGDSEPELDEESEDEVEEEQEERQPSPEPVQENANSGYYEAHPVTNGIEEPLEESSHEPEPEPESETKTEELKPQVEEKNLEELEEKSTTPPPAEPVSLPQEPPKAFSWASVTSKNLPPSGTVSSSGIPPHVKAPVSQPRVEAKPEVQSQPPRVREQRPRERPGFPPRGPRPGRGDMEQNDSDNRRIIRYPDSHQLFVGNLPHDIDENELKEFFMSFGNVVELRINTKGVGGKLPNFGFVVFDDSEPVQRILIAKPIMFRGEVRLNVEEKKTRAARERETRGGGDDRRDIRRNDRGPGGPRGIVGGGMMRDRDGRGPPPRGGMAQKLGSGRGTGQMEGRFTGQRR"}, "B9": {"name": "P50454 (protein, UniProt P50454 1-418, looked up)", "chain": "MRSLLLLSAFCLLEAALAAEVKKPAAAAAPGTAEKLSPKAATLAERSAGLAFSLYQAMAKDQAVENILVSPVVVASSLGLVSLGGKATTASQAKAVLSAEQLRDEEVHAGLGELLRSLSNSTARNVTWKLGSRLYGPSSVSFADDFVRSSKQHYNCEHSKINFRDKRSALQSINEWAAQTTDGKLPEVTKDVERTDGALLVNAMFFKPHWDEKFHHKMVDNRGFMVTRSYTVGVMMMHRTGLYNYYDDEKEKLQIVEMPLAHKLSSLIILMPHHVEPLERLEKLLTKEQLKIWMGKMQKKAVAISLPKGVVEVTHDLQKHLAGLGLTEAIDKNKADLSRMSGKKDLYLASVFHATAFELDTDGNPFDQDIYGREELRSPKLFYADHPFIFLVRDTQSGSLLFIGRLVRPKGDKMRDEL", "modifications": "full-length"}}, "test_system": "proteins that co-immunoprecipitated with DUX4-CTD constructs expressed in MB135 myoblasts", "test": "LC-MS of proteins co-immunoprecipitated with DUX4-CTD (Table 1) and western validation", "assay_type": "binding, human", "parameters": "key to 4. mL1dL2 + Dox + IFNG / 4. + IFNG mix / 4. longCTD + Dox + IFNG / 3. + IFNg + Dox longCTD / 3. + Dox longCTD / 3. + IFNG longCTD: peptide-spectrum matches (PSMs) per protein", "conditions": "for 4. + IFNG mix: LC-MS value per protein co-immunoprecipitated from MB135 myoblasts, + IFNG mix sample (no Dox); for 4. + IFNG mix / 4. mL1dL2 + Dox + IFNG: kind of count not given; for 3. + IFNg + Dox longCTD: experiment 3, IFNg + Dox; for SUM of PSMS: sum over all samples; for 4. mL1dL2 + Dox + IFNG: LC-MS value per protein co-immunoprecipitated with DUX4-CTD construct mL1dL2 in MB135 myoblasts", "summary_of_the_method": "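FLAG-tagged DUX4-CTD expressed in doxycycline-induced MB135 myoblasts, some also IFNG-treated; nuclear lysates in pH 7.4 NP-40 IP buffer were pre-cleared, then anti-FLAG immunoprecipitated 3 h at 4 °C. For LC-MS, FLAG-peptide elution, in-gel trypsin digest, Orbitrap analysis; proteins with ≥2 PSMs in both experiments categorised and ranked by total PSMs.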", "data": [{"molecule": "B1", "values": [{"measurement": "4. + IFNG mix", "result": 1}]}, {"molecule": "B2", "values": [{"measurement": "3. + Dox longCTD", "setting": "bait longCTD, experiment 3, Dox only", "result": 1}, {"measurement": "3. + IFNg + Dox longCTD", "setting": "bait longCTD", "result": 9}, {"measurement": "SUM of PSMS", "result": 11}]}, {"molecule": "B3", "values": [{"measurement": "4. mL1dL2 + Dox + IFNG", "result": 1}]}, {"molecule": "B4", "values": [{"measurement": "4. + IFNG mix", "result": 1}, {"measurement": "4. mL1dL2 + Dox + IFNG", "result": 8}]}, {"molecule": "B5", "values": [{"measurement": "4. mL1dL2 + Dox + IFNG", "result": 2}]}, {"molecule": "B6", "values": [{"measurement": "4. mL1dL2 + Dox + IFNG", "result": 4}]}, {"molecule": "B7", "values": [{"measurement": "4. mL1dL2 + Dox + IFNG", "result": 1}]}, {"molecule": "B8", "values": [{"measurement": "4. mL1dL2 + Dox + IFNG", "result": 1}]}, {"molecule": "B9", "values": [{"measurement": "3. + IFNg + Dox longCTD", "setting": "bait longCTD", "result": 1}, {"measurement": "SUM of PSMS", "result": 11}]}]}
